Blank lines part the entries; values can stand above or below the substance they belong to.
Columns and labels:
[1] = target: hepatocyte growth factor (HGF) (UniProt P14210); assay: cell-based or functional assay
[2] = target: Met on MDCK II cells (Madin-Darby canine kidney) (canine (cell line MDCK II)) (UniProt Q75ZY9); assay: cell-based or functional assay

Substance: Met-877-Fc (Met-877 splice variant fused to human IgG1 Fc) (Fc fusion)
- amount of inhibitory protein that gave roughly 50% inhibition of scattering, HGF ~5-7 ng/ml, MDCK and HT115 [1]: 0.1 to 1 µg/mL
- inhibition of HGF-induced Met phosphorylation, A549 and MDA-MB-231 cells, doses higher than 3-10 nM [1]: > 90%
- inhibition of HGF-induced phosphorylation of Met Y1230/4/5, MDA-MB-231 cells, 3 nM variant [1]: > 60%
- inhibition of HGF-induced proliferation of AsPC-1 cells (BrdU incorporation), 10 ng/ml HGF, 877-Fc at 100 and 300 nM [1]: 90%
- inhibition of HGF-induced urokinase upregulation, MDCK II, 10 ng/ml HGF, 3 nM variant [1]: 60 to 80%
- inhibition of HGF-induced urokinase upregulation, MDCK II, 10 ng/ml HGF, 10 nM variant [1]: 80%
- inhibition of HGF-induced urokinase upregulation, MDCK II, 10 ng/ml HGF, doses higher than 10 nM [1]: > 95%
- inhibition of HGF-induced urokinase upregulation, MDCK II, 10 ng/ml HGF, variant at 50 nM or more [1]: > 95%
- scattering score, HT115, inhibitor 0.1 µg/ml, HGF 3 ng/ml [1]: 2 score 1-5
- scattering score, HT115, inhibitor 0.1 µg/ml, HGF 5 ng/ml [1]: 3 score 1-5
- scattering score, HT115, inhibitor 5 µg/ml, HGF 5 ng/ml [1]: 1 score 1-5
- scattering score, HT115, inhibitor 5 µg/ml, HGF 7 ng/ml [1]: 1 score 1-5
- scattering score, HT115, inhibitor 10 µg/ml, HGF 1 ng/ml [1]: 1 score 1-5
- scattering score, HT115, inhibitor 10 µg/ml, HGF 3 ng/ml [1]: 1 score 1-5
- scattering score, HT115, inhibitor 10 µg/ml, HGF 5 ng/ml [1]: 1 score 1-5
- scattering score, HT115, inhibitor 10 µg/ml, HGF 7 ng/ml [1]: 1 score 1-5
- scattering score, HT115, inhibitor 10 µg/ml, HGF 50 ng/ml [1]: 2 score 1-5
- scattering score, HT115, inhibitor 100 µg/ml, HGF 50 ng/ml [1]: 1 score 1-5
- scattering score, MDCK, inhibitor 0.1 µg/ml, HGF 7 ng/ml [1]: 5 score 1-5
- scattering score, MDCK, inhibitor 1 µg/ml, HGF 1 ng/ml [1]: 1 score 1-5
- scattering score, MDCK, inhibitor 1 µg/ml, HGF 5 ng/ml [1]: 3 score 1-5
- scattering score, MDCK, inhibitor 1 µg/ml, HGF 7 ng/ml [1]: 3 score 1-5
- scattering score, MDCK, inhibitor 1 µg/ml, HGF 10 ng/ml [1]: 3 score 1-5
- scattering score, MDCK, inhibitor 5 µg/ml, HGF 10 ng/ml [1]: 2 score 1-5
- scattering score, MDCK, inhibitor 10 µg/ml, HGF 1 ng/ml [1]: 1 score 1-5
- scattering score, MDCK, inhibitor 10 µg/ml, HGF 5 ng/ml [1]: 1 score 1-5
- scattering score, MDCK, inhibitor 10 µg/ml, HGF 7 ng/ml [1]: 1 score 1-5
- scattering score, MDCK, inhibitor 10 µg/ml, HGF 10 ng/ml [1]: 1 score 1-5
- scattering score, MDCK, inhibitor 10 µg/ml, HGF 30 ng/ml [1]: 2 score 1-5
- scattering score, MDCK, inhibitor 30 µg/ml, HGF 10 ng/ml [1]: 1 score 1-5
- scattering score, MDCK, inhibitor 30 µg/ml, HGF 30 ng/ml [1]: 1 score 1-5
- scattering score, MDCK, inhibitor 30 µg/ml, HGF 100 ng/ml [1]: 2 score 1-5
- scattering score, MDCK, inhibitor 100 µg/ml, HGF 100 ng/ml [1]: 1 score 1-5

Substance: Met-934-Fc (Met-934 splice variant fused to human IgG1 Fc) (Fc fusion)
- amount of inhibitory protein that gave roughly 50% inhibition of scattering, HGF ~5-7 ng/ml, MDCK and HT115 [1]: 0.1 to 1 µg/mL
- inhibition of HGF-induced Met phosphorylation, A549 and MDA-MB-231 cells, doses higher than 3-10 nM [1]: > 90%
- inhibition of HGF-induced phosphorylation of Met Y1230/4/5, MDA-MB-231 cells, 3 nM variant [1]: > 60%
- inhibition of HGF-induced urokinase upregulation, MDCK II, 10 ng/ml HGF, 3 nM variant [1]: 60 to 80%
- inhibition of HGF-induced urokinase upregulation, MDCK II, 10 ng/ml HGF, doses higher than 10 nM [1]: > 95%
- scattering score, MDCK, inhibitor 10 µg/ml, HGF 50 ng/ml [1]: 3 score 1-5
- scattering score, MDCK, inhibitor 10 µg/ml, HGF 100 ng/ml [1]: 5 score 1-5
- scattering score, MDCK, inhibitor 30 µg/ml, HGF 50 ng/ml [1]: 2 score 1-5
- scattering score, MDCK, inhibitor 100 µg/ml, HGF 100 ng/ml [1]: 1 score 1-5

Substance: hepatocyte growth factor (HGF) (from UniProt P14210 32-728) (ligand)
- scattering score, MDCK, no inhibitor, HGF 5-100 ng/ml [2]: 5 score 1-5

More lines, now with the values ahead:

- amount of inhibitory protein that gave roughly 50% inhibition of scattering, HGF ~5-7 ng/ml, MDCK and HT115 [1]: 0.1 to 1 µg/mL
- inhibition of HGF-induced Met tyrosine phosphorylation, A431 or A549 cells, 100 µg/ml Met-877, 10 ng/ml HGF [1]: 70%
- inhibition of Met tyrosine phosphorylation, NCI-H441 cells (constitutive phosphorylation), 100 µg/ml Met-877, 10 ng/ml HGF [1]: 40%
- scattering score, HT115, inhibitor 1 µg/ml, HGF 7 ng/ml [1]: 1 score 1-5
- scattering score, HT115, inhibitor 5 µg/ml, HGF 7 ng/ml [1]: 1 score 1-5
- scattering score, HT115, inhibitor 10 µg/ml, HGF 7 ng/ml [1]: 1 score 1-5
- scattering score, HT115, inhibitor 10 µg/ml, HGF 50 ng/ml [1]: 3 score 1-5
- scattering score, HT115, inhibitor 100 µg/ml, HGF 50 ng/ml [1]: 1 score 1-5
- scattering score, MDCK, inhibitor 0.1 µg/ml, HGF 5 ng/ml [1]: 5 score 1-5
- scattering score, MDCK, inhibitor 30 µg/ml, HGF 50 ng/ml [1]: 4 score 1-5
- scattering score, MDCK, inhibitor 100 µg/ml, HGF 50 ng/ml [1]: 3 score 1-5
Substance: Met-877 His tag protein (Met-877 splice variant with C-terminal Strep II and 8xHis tags) (from UniProt P08581 25-861) (receptor)

- amount of inhibitory protein that gave roughly 50% inhibition of scattering, HGF ~5-7 ng/ml, MDCK and HT115 [1]: 0.1 to 1 µg/mL
- inhibition of HGF-induced Met phosphorylation, A549 and MDA-MB-231 cells, doses higher than 3-10 nM [1]: > 90%
- inhibition of HGF-induced phosphorylation of Met Y1230/4/5, MDA-MB-231 cells, 3 nM variant [1]: > 60%
- inhibition of HGF-induced urokinase upregulation, MDCK II, 10 ng/ml HGF, 3 nM variant [1]: 60 to 80%
- inhibition of HGF-induced urokinase upregulation, MDCK II, 10 ng/ml HGF, doses higher than 10 nM [1]: > 95%
- scattering score, HT115, inhibitor 1 µg/ml, HGF 7 ng/ml [1]: 1 score 1-5
- scattering score, HT115, inhibitor 5 µg/ml, HGF 7 ng/ml [1]: 1 score 1-5
- scattering score, HT115, inhibitor 10 µg/ml, HGF 7 ng/ml [1]: 1 score 1-5
- scattering score, HT115, inhibitor 30 µg/ml, HGF 50 ng/ml [1]: 2 score 1-5
- scattering score, MDCK, inhibitor 1 µg/ml, HGF 5 ng/ml [1]: 2 score 1-5
- scattering score, MDCK, inhibitor 5 µg/ml, HGF 5 ng/ml [1]: 2 score 1-5
Substance: Met-885-Fc (Met-885 splice variant fused to human IgG1 Fc) (Fc fusion)
